T1: rat/human hybrid NPY Y5 receptor (rat/human chimera)
T1 chain: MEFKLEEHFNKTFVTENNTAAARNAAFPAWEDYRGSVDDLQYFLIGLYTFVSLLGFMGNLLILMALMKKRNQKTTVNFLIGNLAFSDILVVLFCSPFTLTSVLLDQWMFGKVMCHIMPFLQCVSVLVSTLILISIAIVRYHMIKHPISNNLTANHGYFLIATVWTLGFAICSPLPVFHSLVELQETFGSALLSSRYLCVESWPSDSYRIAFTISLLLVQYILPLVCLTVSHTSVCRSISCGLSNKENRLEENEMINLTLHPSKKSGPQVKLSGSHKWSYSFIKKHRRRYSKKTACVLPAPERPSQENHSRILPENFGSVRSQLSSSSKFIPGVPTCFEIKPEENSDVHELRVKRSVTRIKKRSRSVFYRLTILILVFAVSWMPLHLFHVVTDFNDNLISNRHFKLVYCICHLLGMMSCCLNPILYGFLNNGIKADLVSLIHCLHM


Legend:
[1] = biological target: T1, rat/human hybrid NPY Y5 receptor; assay: competition with 0.1 nM [125I]PYY, membranes of COS1 cells transiently expressing the receptor
Method: (§1) PYY and 2.5–5 ug of membrane protein (50 ul final volume). […] PYY and various concentrations of competing peptides (200 ul final volume). […] Binding assays were incubated at room temperature for 90 minutes and were terminated by rapid vacuum filtration through glass fiber filters in 96-well format (Multiscreen FB Filter Plates, Millipore, Bedford, Mass. or Unifilter-96 GF/C, Packard, Meriden, Conn.) Prior to filtration the glass fiber filters were pretreated with 100 ul of 0.3 % polyethylenimine. Each filter was then washed 3 times with 100 ul of PBS. Radioactivity trapped on the filters was then counted by standard gamma counting techniques.
(§2) Peptide affinities were measured in competition binding assays with membranes from COS1 cells transiently expressing the human Y_5 and rat/human hybrid Y_5 receptors.

human NPY Y5 receptor [2] = biological target: T2, human NPY Y5 receptor (human, UniProt Q15761); assay: as above
Method: as §1, §2

[3] = biological target: T1, rat/human hybrid NPY Y5 receptor; assay: radioligand binding at 100 pM [125I]PYY, membranes of COS1 cells transiently expressing the construct
Method: as §1
(§3) All receptors were expressed transiently in COS1 cells.

human NPY Y5 receptor [4] = biological target: T2, human NPY Y5 receptor; assay: as above
Method: as §1, §3

[5] = biological target: rat NPY Y5 receptor expressed from pCR3.1-rY5A (rat, UniProt Q63634); assay: as above
Method: as §1, §3

Ki [1] | Ki (human NPY Y5 receptor [2]) | Level of Expression (fmol/mg protein), radioligand bound at 100 pM [3] | Level of Expression (fmol/mg protein), radioligand bound at 100 pM (human NPY Y5 receptor [4]) | Level of Expression (fmol/mg protein), radioligand bound at 100 pM [5] | Binder
75.6 nM | 60 nM |  |  |  | APLEPMYPGDYATHEQRAQYETQLRRYINTLTRPRY (ligand) [Rat PP]
 |  | 298 fmol/mg protein | 103 fmol/mg protein | 100 fmol/mg protein | [125I] porcine peptide YY (ligand, 125I label) peptide: not shown
2.86 nM |  |  |  |  | APLEPVYPGDNATPEQMAQYAADLRRYINMLTRPRY (ligand) [Human PP]
